Laboratory results published in patent US7423115B2, “ARTS C-terminus fragments and mimetics thereof” (SimeTRA Pharm Ltd, priority 2005, dated 2008).

What was measured:
[1] = biological target: T1, Bir3 domain of XIAP protein (Homo sapiens, UniProt P98170); experiment: Co-immunoprecipitation of myc-tagged ARTS C-terminus with GST-Bir3 on glutathione beads in transfected, staurosporine-treated COS-7 cells; type: binding; conditions: COS-7 cells co-transfected, 1.25 μM staurosporine for 1 hr, Western blot with anti-ARTS C-terminus antibody
T1 construct: vectors expressing either the Bir3 domain of XIAP protein fused to GST; expressed in transfected cells; host or cells: COS-7
Method: COS-7 cells were transfected with 2.5 μg each of vectors expressing either the Bir3 domain of XIAP protein fused to GST or the GST alone, together with the myc-tagged ARTS C-terminus or myc-ARTS alone. After 40 hr, cells were exposed to 1.25 μM staurosporine for 1 hr and then washed in phosphate-buffered saline (PBS), scraped off the dish, pelleted, resuspended in 20 μL lysis buffer (150 mM NaCl, 50 mM Tris-HCl (pH 8), 1% NP-40, 0.5% deoxycholate acid, protease inhibitors (Mini Complete®, Roche Applied Science, Indianapolis, Ind.), and incubated on ice for 20 min.
Lysis buffer was added to lysate containing 400 mcg total protein, to a final volume of 1 ml. 100 mcL of 20% glutathione beads was added, and the mixture was rotated at 7.5° C. overnight. Beads were centrifuged at 400×g for 2 min and washed 3 times in 1 ml RIPA buffer (0.1% SDS, 1% NP-40, 0.5% deoxycholate acid, 150 mM NaCl, 50 mM Tris-HCl (pH 8), protease inhibitors). The pellet was boiled for 5 min in an additional 25 mcL RIPA buffer and 10 mcL 4× loading buffer, then the sample was electrophoresed on an SDS poly-acrylamide gel, transferred to PVDF membrane, and subjected to Western blot using monoclonal antibody directed against the ARTS C-terminus. Blots were developed with the West Pico kit (Pierce Biotechnology, Rockford, Ill.).

[2] = tested on: cells; experiment: Induction of apoptosis by the ARTS C terminus; type: cell-based
Method: Cells were incubated for 24 hours with no peptide (negative control) or with 100 micromolar (mcM) peptides corresponding to residues 1-9 (“pep1”), 10-18 (“pep2”), or 19-27 (“pep3”) of the ARTS C-terminus Apoptotic cells were detected using DAPI staining or TUNEL. For TUNEL assays, the cells were fixed and permeabilized. Apoptosis levels were determined using the TUNEL In situ™ cell death detection TMR kit (Roche) according to the manufacturer's protocol. All samples were coded, and experiments were performed in a blind manner.

T1 sequence (P98170 265-330 limits assumed): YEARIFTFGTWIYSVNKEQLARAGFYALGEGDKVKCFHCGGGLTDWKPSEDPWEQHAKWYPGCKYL

Interaction with GST-Bir3 domain of XIAP (co-precipitation with glutathione beads) [1]: co-precipitated
Sequence: YGPSLRLLAPPGAVKGTGQEHQGQGCH [ARTS C terminus]
Induction of apoptosis [2]: sufficient for induction of apoptosis
